# Reference: PMC4398755, “Cloning and expressing a highly functional and substrate specific farnesoic acid o-methyltransferase from the Asian citrus psyllid (Diaphorina citri Kuwayama)” (FEBS Open Bio, 2015)
# B1: DcFA-o-MT (Diaphorina citri) (protein)
# chain: MHKATLYETNNSMQQLDAAKLLSQYIDQFKWTDNESVLDVGCGPGNVTSKLLLPNLPKSVVKLVGLDVSPNMIKHAKNHHTNPKLEFVVANIADQNLESIFLAKFNKIFSFYCLHWVQDQRQAISNIYNLLMPGGEVLLLLNAFNPIYDLYEKLSRKPKWTEYTQDVARFISPYHHSKHPISEMTALLQSVGFNIHHCDSNTSSYSYRTVSDLRQALTSVNPFLERIPSTLQDDFMNDCIDVVFNGNLREVFPLDEQTVRFNYTQIIVFARK
# Experiments:
# Experiment in all cases: radiometric [3H]SAM methyl transfer, RP-HPLC / rapid biphasic separation
# DcFA-o-MT = target: T1, DcFA-o-MT (Diaphorina citri, UniProt A0A075W3Z0); type: biochemical; details: 10 μM SAM (saturating), 50 mM Tris-HCl pH 7.9, 25 °C, 30 min; no metal added; 357 pmol enzyme in 100 μL, well above Km; substrate 1-20 μM
# T1 sequence (A0A075W3Z0 1-272): B1 chain
# Description: (§1) radiometric [3H]SAM methyl transfer, RP-HPLC / rapid biphasic separation on DcFA-o-MT
# [1] = substrate: CC/C(=C\CC/C(C)=C\C(=O)O)CCC1OC1(C)CC; type: biochemical, Diaphorina citri; details: 10 μM SAM (saturating), 50 mM Tris-HCl pH 7.9, 25 °C, 30 min, no metal added, 357 pmol enzyme in 100 μL, well above Km, substrate 1-20 μM, printed kcat/Km 143.4 does not match the printed Km and kcat
# Description: as §1
# [2] = substrate: CC/C(=C/CC/C(C)=C/C(=O)O)CCC1OC1(C)CC; type: biochemical, Diaphorina citri; details: 10 μM SAM (saturating), 50 mM Tris-HCl pH 7.9, 25 °C, 30 min, no metal added, 357 pmol enzyme in 100 μL, well above Km, substrate 1-20 μM, error exceeds value, text b19 says Km is 100-fold that of FA,
# Description: as §1
# [3] = substrate: C/C(=C\C(=O)O)CC/C=C(\C)CC[C@H]1OC1(C)C; type: biochemical, Diaphorina citri; details: 10 μM SAM (saturating), 50 mM Tris-HCl pH 7.9, 25 °C, 30 min, no metal added, 357 pmol enzyme in 100 μL, well above Km, substrate 1-20 μM
# Description: as §1
# [4] = substrate: CC(C)=CCC/C(C)=C/CC/C(C)=C/C(=O)O; type: biochemical, Diaphorina citri; details: 10 μM SAM (saturating), 50 mM Tris-HCl pH 7.9, 25 °C, 30 min, no metal added, 357 pmol enzyme in 100 μL, well above Km, substrate 1-20 μM
# Description: as §1
Molecule,Km (DcFA-o-MT) [µM],Km [1] [µM],Vmax [1] [µmol/min],Km [2] [µM],Vmax [2] [µmol/min],kcat/Km [2] [M⁻¹ s⁻¹],Km [3] [µM],Vmax [3] [µmol/min],kcat [3] [s⁻¹],kcat/Km [3] [M⁻¹ s⁻¹],Km [4] [µM],Vmax [4] [µmol/min],kcat [4] [s⁻¹],kcat/Km [4] [M⁻¹ s⁻¹]
homoFA,0.02 ± 0.01,,,,,,,,,,,,,
B1,,5.65 ± 0.83,1.75e-06,4.58 ± 4.82,5e-08,0.66,2.53 ± 0.72,2.8e-07,1.3e-05 ± 2e-06,5.14,0.46 ± 0.05,1.61e-05,0.00075 ± 3e-05,1640
